Experimental data published in article PMC2945607 (Molecular cell, 2010).

Target: T1, recombinant Caulobacter FtsZ (Caulobacter crescentus, UniProt B8H080 1-508)
T1 sequence (looked up): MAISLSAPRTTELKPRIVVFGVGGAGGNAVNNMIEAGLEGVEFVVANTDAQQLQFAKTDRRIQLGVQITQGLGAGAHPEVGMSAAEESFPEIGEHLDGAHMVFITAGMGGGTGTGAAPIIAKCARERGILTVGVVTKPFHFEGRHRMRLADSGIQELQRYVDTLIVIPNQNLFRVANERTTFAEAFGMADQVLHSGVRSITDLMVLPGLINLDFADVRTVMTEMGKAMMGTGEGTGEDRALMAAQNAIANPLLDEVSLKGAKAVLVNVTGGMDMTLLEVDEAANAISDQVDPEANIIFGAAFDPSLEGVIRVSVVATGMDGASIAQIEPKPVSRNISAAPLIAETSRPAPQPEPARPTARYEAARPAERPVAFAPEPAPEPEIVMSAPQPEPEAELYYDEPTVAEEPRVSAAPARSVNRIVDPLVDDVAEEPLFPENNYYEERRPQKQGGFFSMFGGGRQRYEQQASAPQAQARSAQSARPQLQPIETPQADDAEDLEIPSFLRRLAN
Test: right angle light scattering

fold increase in light scattering at steady state against FtsZ without FzlA: > 10 fold
B1: His6-FzlA (natural protein, Caulobacter crescentus, UniProt Q9A2C6 1-228, looked up)
chain: MSVERTLHHFPLDPASRQVRLALGEKRLPFVEMQVRYWEMPPEFTSLNPSGMPPVLVETKHQRNLVICETRAILEHIEETETEPPLLGRDPAERAEARRLLQWFDRKFDNEVNGFLLHEKMEKRLLRMGAPDLAALRQGREALRMHLGYIESLLQTRDWLAGRRMSLADFAAAAHLSVIDYFGDVPWKDFQAAKTWYMKLKSRPCFRPILADRWPGLAPAAHYDDLDF
